This note sets out measurements from patent US20220195023A1 (ATRECA, published 2022).

Sequences and labels used below:
B1: AB-007028 (antibody, V domains shown)
VH: QMQLVESGGGVVQPGRSLRLSCAASGFTFSTYAMHWVRQAPGQGLQWVAVISYHSTNKYYEDSVRGRFTISRDNSKNTLYLQMNSLRAEDTAVYYCARDGYSSSFFDFWGQGTLVTVSS
VL: DIQMTQSPSTLSASVGDRVTITCRASQSISRWLAWYQQQPGKAPKLLMSGASVLESGVPSRFSGSGSGTEFTLTISSLQPDDFATYYCQHYNSYFVTFGQGTKVEIK
B2: AB-007033 (antibody, V domains shown)
VH: QMQLVESGGGVVQPGRSLRLSCAASGFTFSTYAMHWVRQAPGQGLEWVAVISYHSTNKYYADSVRGRFTISRDNSKNTLYLQMNSLRAEDTAVYYCARDGYSSSFFDFWGQGTLVTVSS
VL: DIQMTQSPSTLSASVGDRVTITCRASQSISRWLAWYQQQPGKAPKLLMSGASVLESGVPSRFSGSGSGTEFTLTISSLQPDDFATYYCQHYNSYFVTFGQGTKVEIK
B3: AB-007045 (antibody, V domains shown)
VH: QMQLVESGGGVVQPGRSLRLSCTASGFTFSTYAMHWVRQSPGQGLQWVAVISYHSTNKYYEDSVRGRFTISRDNSKNTLYLQMNSLRAEDTAVYYCARDAYSSSFFDFWGQGTLVTVSS
VL: DIQMTQSPSTLSASVGDRVAITCRASQSISRWLAWYQQQPGKAPKLLMSGASVLESGVPSRFSGSGSGTEFTLTISSLQPDDFATYYCQHYNSYFVTFGQGTKVEIK
B4: AB-007031 (antibody, V domains shown)
VH: QMQLVESGGGVVQPGRSLRLSCTASGFTFSTYAMHWVRQSPGQGLQWVAVISYHSTNKYYEDSVRGRFTISRDNSKNTLYLQMNSLRAEDTAVYYCARDGYSSSFFDFWGQGTLVTVSS
VL: DIQMTQSPSTLSASVGDRVAITCRASQSISRWLAWYQQQPGKAPKLLISGASVLESGVPSRFSGSGSGTEFTLTISSLQPDDFATYYCQHYNSYFVTFGQGTKVEIK
B5: AB-007050 (antibody, V domains shown)
VH: QMQLVESGGGVVQPGRSLRLSCTASGFTFSTYAMHWVRQSPGQGLQWVAVISQHSTNKYYEDSVRGRFTISRDNSKNTLYLQMNSLRAEDTAVYYCARDGYSSSFFDFWGQGTLVTVSS
VL: DIQMTQSPSTLSASVGDRVAITCRASQSISRWLAWYQQQPGKAPKLLMSGASVLESGVPSRFSGSGSGTEFTLTISSLQPDDFATYYCQHYNSYFVTFGQGTKVEIK
B6: AB-007036 (antibody, V domains shown)
VH: QMQLVESGGGVVQPGRSLRLSCTASGFTFSTYAMHWVRQSPGQGLQWVAVISYDSTNKYYEDSVRGRFTISRDNSKNTLYLQMNSLRAEDTAVYYCARDGYSSSFFDFWGQGTLVTVSS
VL: DIQMTQSPSTLSASVGDRVAITCRASQSISRWLAWYQQQPGKAPKLLMSGASVLESGVPSRFSGSGSGTEFTLTISSLQPDDFATYYCQHYNSYFVTFGQGTKVEIK
B7: AB-007039 (antibody, V domains shown)
VH: QMQLVESGGGVVQPGRSLRLSCTASGFTFSTYAMHWVRQSPGQGLQWVAVISYHSTNKYYEDSVRGRFTISRDNSKNTLYLQMNSLRAEDTAVYYCARDGYSSSFFDFWGQGTLVTVSS
VL: DIQMTQSPSTLSASVGDRVAITCRASQSISRWLAWYQQQPGKAPKLLMSGASVLESGVPSRFSGSGSGTEFTLTISSLQPDDFATYYCQHYNSYSVTFGQGTKVEIK
B8: AB-007034 (antibody, V domains shown)
VH: QVQLVESGGGVVQPGRSLRLSCAASGFTFSTYAMHWVRQAPGQGLEWVAVISYHSTNKYYADSVRGRFTISRDNSKNTLYLQMNSLRAEDTAVYYCARDGYSSSFFDFWGQGTLVTVSS
VL: DIQMTQSPSTLSASVGDRVTITCRASQSISRWLAWYQQQPGKAPKLLISGASVLESGVPSRFSGSGSGTEFTLTISSLQPDDFATYYCQHYNSYFVTFGQGTKVEIK
B9: AB-007046 (antibody, V domains shown)
VH: QMQLVESGGGVVQPGRSLRLSCTASGFTFSTYAMHWVRQSPGQGLQWVAVISYHSTNKYYEDSVRGRFTISRDNSKNTLYLQMNSLRAEDTAVYYCARDGYSSSFFDFWGQGTLVTVSS
VL: DIQMTQSPSTLSASVGDRVAITCRASQSISRWLAWYQQQPGKAPKLLMSGASVLESGVPSRFSGSGSGTEFTLTISSLQPDDFATYYCQHYYSYFVTFGQGTKVEIK
B10: AB-007037 (antibody, V domains shown)
VH: QMQLVESGGGVVQPGRSLRLSCTASGFTFSTYAMHWVRQSPGQGLQWVAVISYHSTNKYYEDSVKGRFTISRDNSKNTLYLQMNSLRAEDTAVYYCARDGYSSSFFDFWGQGTLVTVSS
VL: DIQMTQSPSTLSASVGDRVAITCRASQSISRWLAWYQQQPGKAPKLLMSGASVLESGVPSRFSGSGSGTEFTLTISSLQPDDFATYYCQHYNSYFVTFGQGTKVEIK
B11: AB-007047 (antibody, V domains shown)
VH: QMQLVESGGGVVQPGRSLRLSCTASGFTFSNYAMHWVRQSPGQGLQWVAVISYHSTNKYYEDSVRGRFTISRDNSKNTLYLQMNSLRAEDTAVYYCARDGYSSSFFDFWGQGTLVTVSS
VL: DIQMTQSPSTLSASVGDRVAITCRASQSISRWLAWYQQQPGKAPKLLMSGASVLESGVPSRFSGSGSGTEFTLTISSLQPDDFATYYCQHYNSYFVTFGQGTKVEIK
B12: AB-007041 (antibody, V domains shown)
VH: QMQLVESGGGVVQPGRSLRLSCTASGFTFSDYAMHWVRQSPGQGLQWVAVISYHSTNKYYEDSVRGRFTISRDNSKNTLYLQMNSLRAEDTAVYYCARDGYSSSFFDFWGQGTLVTVSS
VL: DIQMTQSPSTLSASVGDRVAITCRASQSISRWLAWYQQQPGKAPKLLMSGASVLESGVPSRFSGSGSGTEFTLTISSLQPDDFATYYCQHYNSYFVTFGQGTKVEIK
B13: AB-007040 (antibody, V domains shown)
VH: QMQLVESGGGVVQPGRSLRLSCTASGFTFSTYAMHWVRQSPGQGLQWVAVISYHSTNKYYEDSVRGRFTISRDNSKNTLYLQMNSLRAEDTAVYYCARDGYSSSFFDFWGQGTLVTVSS
VL: DIQMTQSPSTLSASVGDRVAITCRASQSISRWLAWYQQQPGKAPKLLMSGASVLESGVPSRFSGSGSGTEFTLTISSLQPDDFATYYCQHYNSYYVTFGQGTKVEIK
B14: AB-007043 (antibody, V domains shown)
VH: QMQLVESGGGVVQPGRSLRLSCTASGFTFSTYAMHWVRQSPGQGLQWVAVISYHSTNKYYEDSVRGRFTISRDNSKNTLYLQMNSLRAEDTAVYYCARDGYSSSFFDFWGQGTLVTVSS
VL: DIQMTQSPSTLSASVGDRVAITCRASQSISRWLAWYQQQPGKAPKLLMSGASVLEDGVPSRFSGSGSGTEFTLTISSLQPDDFATYYCQHYNSYFVTFGQGTKVEIK
B15: AB-007044 (antibody, V domains shown)
VH: QMQLVESGGGVVQPGRSLRLSCTASGFTFSTYAMHWVRQSPGQGLQWVAVISYHSTNKYYEESVRGRFTISRDNSKNTLYLQMNSLRAEDTAVYYCARDGYSSSFFDFWGQGTLVTVSS
VL: DIQMTQSPSTLSASVGDRVAITCRASQSISRWLAWYQQQPGKAPKLLMSGASVLESGVPSRFSGSGSGTEFTLTISSLQPDDFATYYCQHYNSYFVTFGQGTKVEIK
B16: AB-007042 (antibody, V domains shown)
VH: QMQLVESGGGVVQPGRSLRLSCTASGFTFSTYAMHWVRQSPGQGLQWVAVISYHSTNKYYEDSVRGRFTISRDNSKNTLYLQMNSLRAEDTAVYYCARDGYSSSFFDFWGQGTLVTVSS
VL: DIQMTQSPSTLSASVGDRVAITCRASQDISRWLAWYQQQPGKAPKLLMSGASVLESGVPSRFSGSGSGTEFTLTISSLQPDDFATYYCQHYNSYFVTFGQGTKVEIK
B17: AB-007049 (antibody, V domains shown)
VH: QMQLVESGGGVVQPGRSLRLSCTASGFTFSTYAMHWVRQSPGQGLQWVAVISNHETNKYYEDSVRGRFTISRDNSKNTLYLQMNSLRAEDTAVYYCARDGYSSSFFDFWGQGTLVTVSS
VL: DIQMTQSPSTLSASVGDRVAITCRASQSISRWLAWYQQQPGKAPKLLMSGASVLESGVPSRFSGSGSGTEFTLTISSLQPDDFATYYCQHYNSYFVTFGQGTKVEIK
B18: AB-007030 (antibody, V domains shown)
VH: QMQLVESGGGVVQPGRSLRLSCTASGFTFSTYAMHWVRQSPGQGLEWVAVISYHSTNKYYADSVRGRFTISRDNSKNTLYLQMNSLRAEDTAVYYCARDGYSSSFFDFWGQGTLVTVSS
VL: DIQMTQSPSTLSASVGDRVAITCRASQSISRWLAWYQQQPGKAPKLLMSGASVLESGVPSRFSGSGSGTEFTLTISSLQPDDFATYYCQHYNSYFVTFGQGTKVEIK
B19: AB-007038 (antibody, V domains shown)
VH: QMQLVESGGGVVQPGRSLRLSCTASGFTFSTYAMHWVRQSPGQGLQWVAVISYHSTNKYYEDSVRGRFTISRDNSKNTLYLQMNSLRAEDTAVYYCARDGYSSSFFDYWGQGTLVTVSS
VL: DIQMTQSPSTLSASVGDRVAITCRASQSISRWLAWYQQQPGKAPKLLMSGASVLESGVPSRFSGSGSGTEFTLTISSLQPDDFATYYCQHYNSYFVTFGQGTKVEIK
B20: AB-007032 (antibody, V domains shown)
VH: QVQLVESGGGVVQPGRSLRLSCAASGFTFSTYAMHWVRQAPGQGLQWVAVISYHSTNKYYEDSVRGRFTISRDNSKNTLYLQMNSLRAEDTAVYYCARDGYSSSFFDFWGQGTLVTVSS
VL: DIQMTQSPSTLSASVGDRVTITCRASQSISRWLAWYQQQPGKAPKLLISGASVLESGVPSRFSGSGSGTEFTLTISSLQPDDFATYYCQHYNSYFVTFGQGTKVEIK
B21: AB-007048 (antibody, V domains shown)
VH: QMQLVESGGGVVQPGRSLRLSCTASGFTFSTYSMHWVRQSPGQGLQWVAVISYHSTNKYYEDSVRGRFTISRDNSKNTLYLQMNSLRAEDTAVYYCARDGYSSSFFDFWGQGTLVTVSS
VL: DIQMTQSPSTLSASVGDRVAITCRASQSISRWLAWYQQQPGKAPKLLMSGASVLESGVPSRFSGSGSGTEFTLTISSLQPDDFATYYCQHYNSYFVTFGQGTKVEIK
B22: AB-007035 (antibody, V domains shown)
VH: QMQLVESGGGVVQPGRSLRLSCTASGFTFSSYAMHWVRQSPGQGLQWVAVISYHSTNKYYEDSVRGRFTISRDNSKNTLYLQMNSLRAEDTAVYYCARDGYSSSFFDFWGQGTLVTVSS
VL: DIQMTQSPSTLSASVGDRVAITCRASQSISRWLAWYQQQPGKAPKLLMSGASVLESGVPSRFSGSGSGTEFTLTISSLQPDDFATYYCQHYNSYFVTFGQGTKVEIK

In this test the target is T1, CSP Protein (Plasmodium falciparum, UniProt Q7K740 19-374).
T1 construct: also called circumsporozoite protein; complete CSP protein
T1 sequence (Q7K740 19-374 limits assumed): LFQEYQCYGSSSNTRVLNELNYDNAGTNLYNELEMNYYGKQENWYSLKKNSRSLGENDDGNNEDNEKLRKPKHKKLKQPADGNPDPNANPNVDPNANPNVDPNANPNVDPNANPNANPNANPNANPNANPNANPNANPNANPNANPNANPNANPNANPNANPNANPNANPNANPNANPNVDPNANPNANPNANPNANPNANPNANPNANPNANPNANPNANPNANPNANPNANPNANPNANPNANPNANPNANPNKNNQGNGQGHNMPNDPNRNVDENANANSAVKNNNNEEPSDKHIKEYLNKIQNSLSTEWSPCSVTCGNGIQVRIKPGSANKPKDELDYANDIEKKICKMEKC
Nature of the test: SPR, antibody on chip.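 Further: antibodies immobilized on a Carterra chip, directly or via anti-human Fc capture, at two spots each, with CSP flowed over at 4-5 concentrations peaking at 0.5-8 µg/mL.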
Protocol: For SPR, each antibody was either directly coupled to a Carterra Chip or coupled using a goat anti-human Fc antibody. The uncoupled antibodies were washed off and various concentration gradients of the targets were flowed over the antibodies, where the highest concentration of each target was in the range 0.5-8 μg/mL. Each antibody was immobilized in two different locations on the chip to allow for duplicate measurements. The affinity for each antibody-target combination was determined using 4-5 target concentrations in Mathematica software. If variation between the two duplicates was >3-fold, the antibody-target measurement was repeated.
B1 came in with a Kd of 0.0457 nM.

B2 came in with a Kd of 0.0408 nM.

With B3, binding was put at a Kd of 0.284 nM. For B4, the Kd is 0.0496 nM. Consider B5, for which binding was put at a Kd of 0.147 nM. The molecule B6 showed a Kd of 0.0967 nM. B7 registered a Kd of 0.106 nM. B8 yielded a Kd of 0.0824 nM. B9 displayed a dissociation constant (Kd) of 0.0364 nM. Next, B10: 0.0346 nM. As to B11, the affinity, expressed as Kd, was 0.175 nM.

For the molecule B12, the Kd was found to be 0.0439 nM. For B13 the value was 0.0447 nM; for B14, 0.0426 nM. The molecule B15 gave a dissociation constant Kd of 0.0319 nM.

The molecule B16 gave a Kd of 0.034 nM. In the case of B17, the affinity, expressed as Kd, was 0.152 nM. Take B18: the affinity, expressed as Kd, was 0.132 nM.

In turn, B19 yielded a Kd of 0.029 nM.

B20 had a Kd of 0.0469 nM. For B21 the value was 0.437 nM; for B22, 0.0513 nM.

The Kd is the equilibrium constant for the complex coming apart.
